Three molecules from publication PMC7617797, “The phosphorylated trimeric SOSS1 complex and RNA polymerase II trigger liquid-liquid phase separation at double-strand breaks” can be followed below.

Data set [1] concerns the target hSSB1 Y102A (Homo sapiens, UniProt Q9BQ15 1-211, Y102A). Nature of the data set: EMSA; EMSA: 25 mM Tris-HCl pH 7.5, 1 mM DTT, 5 mM MgCl2, 100 mM NaCl, 20 min at 37 C; 10 nM substrate; protein 22-167 nM (RPA 5-40 nM); 7.5% native PAGE, 0.5x TBE, 4. The conditions noted are these: protein: recombinant. In general terms: In EMSA bound probe runs differently from free probe, usually more slowly.

The target of data set [2] is hSSB1 Y115A (Homo sapiens, UniProt Q9BQ15 1-211, Y115A). The description is as above. The conditions noted are these: protein: recombinant.
hSSB1 Y115A, sequence (Q9BQ15 whole entry Y115A): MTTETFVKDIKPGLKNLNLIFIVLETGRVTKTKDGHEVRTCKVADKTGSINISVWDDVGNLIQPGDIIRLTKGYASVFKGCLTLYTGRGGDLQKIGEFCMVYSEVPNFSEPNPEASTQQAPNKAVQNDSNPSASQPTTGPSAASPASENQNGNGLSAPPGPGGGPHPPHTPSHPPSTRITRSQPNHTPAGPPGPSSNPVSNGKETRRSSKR
Data set [3] has as its target hSSB1 Y102A/Y115A (Homo sapiens, UniProt Q9BQ15 1-211, Y102A;Y115A). The data set is described as above. The conditions noted are these: protein: recombinant.
Data set [4] concerns the target T1, hSSB1;INTS3;c9orf80 (Homo sapiens;Homo sapiens?;Homo sapiens?, UniProt Q9BQ15;Q68E01;Q9NRY2 1-211;1-1043;1-104, ||). Nature of the data set: competition EMSA; substrate pre-coated with RPA (10 or 30 nM); EMSA: 25 mM Tris-HCl pH 7.5, 1 mM DTT, 5 mM MgCl2, 100 mM NaCl, 20 min at 37 C; 10 nM substrate; protein 22-167 nM (RPA 5-40 nM); 7.5% native PAGE, 0.5x TBE, 4. The conditions noted are these: protein: recombinant;recombinant;recombinant; tags: His6 (2BT);His6-TEV (438B);His6-TEV (438B); copies: 1;1;1; label: 5' Cy3 on strand 1; 21-nt RNA paired to strand 1 in a 21-nt bubble; 20-bp flanking duplexes.

The target of data set [5] is T1, hSSB1;INTS3;c9orf80. Nature of the data set: EMSA; EMSA: 25 mM Tris-HCl pH 7.5, 1 mM DTT, 5 mM MgCl2, 100 mM NaCl, 20 min at 37 C; 10 nM substrate; protein 22-167 nM (RPA 5-40 nM); 7.5% native PAGE, 0.5x TBE, 4. The settings on record: protein: recombinant;recombinant;recombinant; tags: His6 (2BT);His6-TEV (438B);His6-TEV (438B); copies: 1;1;1; label: 5' Cy3; single strand.

The mark [6] stands for this setting: label: 5' Cy3 on strand 1, 21-nt RNA paired to strand 1 in a 21-nt bubble, 20-bp flanking duplexes.

T1 sequence (Q9BQ15 whole entry, chain 1 of 3): as the sequence (Q9BQ15 whole entry Y115A) above, with A115Y counted along it
T1 sequence (Q68E01 whole entry, chain 2 of 3): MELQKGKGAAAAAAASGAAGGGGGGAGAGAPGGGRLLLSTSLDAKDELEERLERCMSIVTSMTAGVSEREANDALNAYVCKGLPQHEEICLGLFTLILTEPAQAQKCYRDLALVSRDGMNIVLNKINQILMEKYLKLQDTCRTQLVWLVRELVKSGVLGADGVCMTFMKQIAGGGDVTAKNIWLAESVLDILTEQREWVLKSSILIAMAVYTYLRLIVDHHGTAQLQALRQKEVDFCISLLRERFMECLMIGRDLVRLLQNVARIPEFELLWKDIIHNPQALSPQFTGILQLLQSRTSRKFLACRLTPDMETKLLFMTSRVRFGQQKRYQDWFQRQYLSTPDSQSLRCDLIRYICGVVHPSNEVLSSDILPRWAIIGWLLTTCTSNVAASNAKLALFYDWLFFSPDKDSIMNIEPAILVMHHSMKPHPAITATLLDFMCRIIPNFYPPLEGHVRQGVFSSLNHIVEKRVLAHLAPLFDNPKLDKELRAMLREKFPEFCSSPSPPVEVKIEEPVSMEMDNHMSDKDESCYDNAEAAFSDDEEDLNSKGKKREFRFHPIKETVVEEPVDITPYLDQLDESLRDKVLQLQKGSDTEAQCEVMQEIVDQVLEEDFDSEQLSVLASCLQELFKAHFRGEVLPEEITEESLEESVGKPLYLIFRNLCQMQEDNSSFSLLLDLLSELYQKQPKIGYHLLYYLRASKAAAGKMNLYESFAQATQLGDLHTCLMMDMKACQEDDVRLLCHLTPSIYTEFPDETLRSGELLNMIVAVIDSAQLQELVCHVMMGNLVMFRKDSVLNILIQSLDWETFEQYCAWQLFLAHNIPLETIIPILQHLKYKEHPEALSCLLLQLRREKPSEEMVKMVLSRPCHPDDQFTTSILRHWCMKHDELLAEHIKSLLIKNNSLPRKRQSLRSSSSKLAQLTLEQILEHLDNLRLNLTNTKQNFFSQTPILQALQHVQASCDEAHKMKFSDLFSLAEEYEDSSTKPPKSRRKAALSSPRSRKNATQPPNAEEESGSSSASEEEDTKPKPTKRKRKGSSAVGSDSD
T1 sequence (Q9NRY2 whole entry, chain 3 of 3): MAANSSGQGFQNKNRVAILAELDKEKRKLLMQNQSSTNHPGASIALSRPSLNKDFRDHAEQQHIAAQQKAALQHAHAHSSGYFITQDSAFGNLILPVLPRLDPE
hSSB1 Y102A/Y115A, sequence (Q9BQ15 whole entry Y102A/Y115A): as the sequence (Q9BQ15 whole entry Y115A) above, with Y102A counted along it
hSSB1 Y102A, sequence (Q9BQ15 whole entry Y102A): as the sequence (Q9BQ15 whole entry Y115A) above, with Y102A, A115Y counted along it

B1: 61-mer ssDNA (ssDNA)
DNA: GACGCTGCCGAATTCTACCAGTGCCTTGCTAGGACATCTTTGCCCACCTGCAGGTTCACCC
Turning to B1, the binding result was “binds” in data set [1] (label: 5' Cy3, single strand); “binds” in data set [2] (label: 5' Cy3, single strand); “binds” in data set [3] (label: 5' Cy3, single strand).

B2: R-loop (mixed)
DNA 1: B1 DNA
DNA 2: GGGTGAACCTGCAGGTGGGCGGCTGCTCATCGTAGGTTAGTTGGTAGAATTCGGCAGCGTC
RNA: AAAGAUGUCCUAGCAAGGCAC
B2: the binding result in data set [4], in data set [1] (setting [6]), in data set [2] (setting [6]) and in data set [3] (setting [6]) was “binds” in each case.

Regarding GTGCCTTGCTAGGACATCTTT (ssDNA) [21-mer ssDNA (pRMS630)], the binding result in data set [5] is “no binding”.
